Laboratory results: patent US20210261648A1 (published 2021)

T1: FcγRIIa type H extracellular domain with C-terminal His tag (human, UniProt P12318 34-217)
T1 construct: extracellular domain; also called FcgRIIaH; FcγRIIa H
T1 sequence (looked up): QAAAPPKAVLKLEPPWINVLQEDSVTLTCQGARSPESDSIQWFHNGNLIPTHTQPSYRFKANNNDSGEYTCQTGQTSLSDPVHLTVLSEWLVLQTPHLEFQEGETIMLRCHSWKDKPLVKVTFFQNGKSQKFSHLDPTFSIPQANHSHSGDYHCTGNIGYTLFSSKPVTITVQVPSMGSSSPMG

T2: FcγRIIb (human, UniProt P31994 43-217)
T2 construct: extracellular domain; also called FcgRIIb; CD32B
T2 sequence (looked up): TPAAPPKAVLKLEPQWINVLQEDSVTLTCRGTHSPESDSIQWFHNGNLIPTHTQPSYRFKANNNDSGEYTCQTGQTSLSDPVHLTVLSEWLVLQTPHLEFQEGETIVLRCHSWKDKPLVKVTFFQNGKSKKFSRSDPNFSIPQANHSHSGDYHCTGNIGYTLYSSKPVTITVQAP

T3: FcγRIIa type R (human, UniProt P12318 34-217)
T3 chain: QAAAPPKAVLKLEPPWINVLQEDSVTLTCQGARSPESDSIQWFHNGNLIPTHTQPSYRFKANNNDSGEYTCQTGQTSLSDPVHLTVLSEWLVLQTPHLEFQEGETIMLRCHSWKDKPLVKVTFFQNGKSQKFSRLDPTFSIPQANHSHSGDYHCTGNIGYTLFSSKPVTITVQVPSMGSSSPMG

B1: IL6R-BP130/IL6R-L (antibody, human IgG1, kappa)
heavy: QVQLQESGPGLVKPSETLSLTCAVSGHSISHDHAWSWVRQPPGEGLEWIGFISYSGITNYNPSLQGRVTISRDNSKNTLYLQMNSLRAEDTAVYYCARSLARTTAMDYWGEGTLVTVSSASTKGPSVFPLAPSSKSTSGGTAALGCLVKDYFPEPVTVSWNSGALTSGVHTFPAVLQSSGLYSLSSVVTVPSSSLGTQTYICNVNHKPSNTKVDKKVEPKSCDKTHTCPPCPAPDLLGGDSVFLFPPKPKDTLMISRTPEVTCVVVDVSHEDPEVKFNWYVDGVEVHNAKTKPREEQYNSTYRVVSVLTVLHQDWLNGKEYKCKMSNKALPKPIEKTISKAKGQPREPQVYTLPPSRDELTKNQVSLTCLVKGFYPSDIAVEWESNGQPENNYKTTPPVLDSDGSFFLYSKLTVDKSRWQQGNVFSCSVMHEALHNHYTQESLSLSP
light: not shown
B2: IL6R-BP559/IL6R-L (antibody, human IgG1, kappa)
heavy: QVQLQESGPGLVKPSETLSLTCAVSGHSISHDHAWSWVRQPPGEGLEWIGFISYSGITNYNPSLQGRVTISRDNSKNTLYLQMNSLRAEDTAVYYCARSLARTTAMDYWGEGTLVTVSSASTKGPSVFPLAPSSKSTSGGTAALGCLVKDYFPEPVTVSWNSGALTSGVHTFPAVLQSSGLYSLSSVVTVPSSSLGTQTYICNVNHKPSNTKVDKKVEPKSCDKTHTCPPCPAPELLGGDSVFLFPPKPKDTLMISRTPEVTCVVIDVAEEDGDVKFNWYVDGVEVHNAKTKPREEQDNSTYRVVSVLTVLHQDWLNGKEYKCKVSNKALPAPIEKTISKAKGQPREPQVYTLPPSRDELTKNQVSLTCLVKGFYPSDIAVEWESNGQPENNYKTTPPVLDSDGSFFLYSKLTVDKSRWQQGNVFSCSVMHEALHNHYTQESLSLSP
light: not shown
notes: Alterations in EU numbering, introduced into IL6R-B3
B3: IL6R-BP509/IL6R-L (antibody, human IgG1, kappa)
heavy: QVQLQESGPGLVKPSETLSLTCAVSGHSISHDHAWSWVRQPPGEGLEWIGFISYSGITNYNPSLQGRVTISRDNSKNTLYLQMNSLRAEDTAVYYCARSLARTTAMDYWGEGTLVTVSSASTKGPSVFPLAPSSKSTSGGTAALGCLVKDYFPEPVTVSWNSGALTSGVHTFPAVLQSSGLYSLSSVVTVPSSSLGTQTYICNVNHKPSNTKVDKKVEPKSCDKTHTCPPCPAPDLLGDDSVFLFPPKPKDTLMISRTPEVTCVVIDVAEEDGDVKFNWYVDGVEVHNAKTKPREEQDNSTYRVVSVLTVLHQDWLNGKEYKCKVSNKALPAPIEKTISKAKGQPREPQVYTLPPSRDELTKNQVSLTCLVKGFYPSDIAVEWESNGQPENNYKTTPPVLDSDGSFFLYSKLTVDKSRWQQGNVFSCSVMHEALHNHYTQESLSLSP
light: not shown
notes: as for B2
B4: IL6R-BP504/IL6R-L (antibody, human IgG1, kappa)
heavy: QVQLQESGPGLVKPSETLSLTCAVSGHSISHDHAWSWVRQPPGEGLEWIGFISYSGITNYNPSLQGRVTISRDNSKNTLYLQMNSLRAEDTAVYYCARSLARTTAMDYWGEGTLVTVSSASTKGPSVFPLAPSSKSTSGGTAALGCLVKDYFPEPVTVSWNSGALTSGVHTFPAVLQSSGLYSLSSVVTVPSSSLGTQTYICNVNHKPSNTKVDKKVEPKSCDKTHTCPPCPAPDLLGDDSVFLFPPKPKDTLMISRTPEVTCVVIDVAEEDGPVKFNWYVDGVEVHNAKTKPREEQYNSTYRVVSVLTVLHQDWLNGKEYKCKVSNKALPAPIEKTISKAKGQPREPQVYTLPPSRDELTKNQVSLTCLVKGFYPSDIAVEWESNGQPENNYKTTPPVLDSDGSFFLYSKLTVDKSRWQQGNVFSCSVMHEALHNHYTQESLSLSP
light: not shown
notes: as for B2
B5: IL6R-BP131/IL6R-L (antibody, human IgG1, kappa)
heavy: QVQLQESGPGLVKPSETLSLTCAVSGHSISHDHAWSWVRQPPGEGLEWIGFISYSGITNYNPSLQGRVTISRDNSKNTLYLQMNSLRAEDTAVYYCARSLARTTAMDYWGEGTLVTVSSASTKGPSVFPLAPSSKSTSGGTAALGCLVKDYFPEPVTVSWNSGALTSGVHTFPAVLQSSGLYSLSSVVTVPSSSLGTQTYICNVNHKPSNTKVDKKVEPKSCDKTHTCPPCPAPDLLGDDSVFLFPPKPKDTLMISRTPEVTCVVVDVSHEDPEVKFNWYVDGVEVHNAKTKPREEQYNSTYRVVSVLTVLHQDWLNGKEYKCKVSNKALPKPIEKTISKAKGQPREPQVYTLPPSRDELTKNQVSLTCLVKGFYPSDIAVEWESNGQPENNYKTTPPVLDSDGSFFLYSKLTVDKSRWQQGNVFSCSVMHEALHNHYTQESLSLSP
light: not shown
B6: IL6R-BP549/IL6R-L (antibody, human IgG1, kappa)
heavy: QVQLQESGPGLVKPSETLSLTCAVSGHSISHDHAWSWVRQPPGEGLEWIGFISYSGITNYNPSLQGRVTISRDNSKNTLYLQMNSLRAEDTAVYYCARSLARTTAMDYWGEGTLVTVSSASTKGPSVFPLAPSSKSTSGGTAALGCLVKDYFPEPVTVSWNSGALTSGVHTFPAVLQSSGLYSLSSVVTVPSSSLGTQTYICNVNHKPSNTKVDKKVEPKSCDKTHTCPPCPAPELLGDDSVFLFPPKPKDTLMISRTPEVTCVVVDVGEEDGEVKFNWYVDGVEVHNAKTKPREEQYNSTYRVVSVLTVLHQDWLNGKEYKCKVSNKALPRPIEKTISKAKGQPREPQVYTLPPSRDELTKNQVSLTCLVKGFYPSDIAVEWESNGQPENNYKTTPPVLDSDGSFFLYSKLTVDKSRWQQGNVFSCSVMHEALHNHYTQESLSLSP
light: not shown
notes: as for B2
B7: IL6R-BP508/IL6R-L (antibody, human IgG1, kappa)
heavy: QVQLQESGPGLVKPSETLSLTCAVSGHSISHDHAWSWVRQPPGEGLEWIGFISYSGITNYNPSLQGRVTISRDNSKNTLYLQMNSLRAEDTAVYYCARSLARTTAMDYWGEGTLVTVSSASTKGPSVFPLAPSSKSTSGGTAALGCLVKDYFPEPVTVSWNSGALTSGVHTFPAVLQSSGLYSLSSVVTVPSSSLGTQTYICNVNHKPSNTKVDKKVEPKSCDKTHTCPPCPAPDLLGDDSVFLFPPKPKDTLMISRTPEVTCVVIDVAEEDGPVKFNWYVDGVEVHNAKTKPREEQDNSTYRVVSVLTVLHQDWLNGKEYKCKVSNKALPAPIEKTISKAKGQPREPQVYTLPPSRDELTKNQVSLTCLVKGFYPSDIAVEWESNGQPENNYKTTPPVLDSDGSFFLYSKLTVDKSRWQQGNVFSCSVMHEALHNHYTQESLSLSP
light: not shown
notes: as for B2
B8: IL6R-BP505/IL6R-L (antibody, human IgG1, kappa)
heavy: QVQLQESGPGLVKPSETLSLTCAVSGHSISHDHAWSWVRQPPGEGLEWIGFISYSGITNYNPSLQGRVTISRDNSKNTLYLQMNSLRAEDTAVYYCARSLARTTAMDYWGEGTLVTVSSASTKGPSVFPLAPSSKSTSGGTAALGCLVKDYFPEPVTVSWNSGALTSGVHTFPAVLQSSGLYSLSSVVTVPSSSLGTQTYICNVNHKPSNTKVDKKVEPKSCDKTHTCPPCPAPDLLGDDSVFLFPPKPKDTLMISRTPEVTCVVIDVAEEDGDVKFNWYVDGVEVHNAKTKPREEQYNSTYRVVSVLTVLHQDWLNGKEYKCKVSNKALPAPIEKTISKAKGQPREPQVYTLPPSRDELTKNQVSLTCLVKGFYPSDIAVEWESNGQPENNYKTTPPVLDSDGSFFLYSKLTVDKSRWQQGNVFSCSVMHEALHNHYTQESLSLSP
light: not shown
notes: as for B2

Key:
[1] = target: T1, FcγRIIa type H extracellular domain …; test: SPR, captured antibody, FcgR analyte
Method: (§1) Relative binding activities were calculated for the results of analyzing interactions with the respective FcγRs according to the following method.

[2] = target: T4, FcγRIa extracellular domain with C-terminal His tag (human, UniProt P12314 16-292); test: SPR, captured antibody, FcgR analyte
T4 construct: also called FcgRIa
Method: as §1

[3] = target: T2, FcγRIIb; test: SPR (Biacore), captured antibody, soluble FcγR
[4] = target: T3, FcγRIIa type R; test: SPR (Biacore), captured antibody, soluble FcγR
[5] = target: T5, FcγRIa (human, UniProt P12314 16-292); test: SPR (Biacore), captured antibody, soluble FcγR
T5 construct: Whole entry named; also called FcgRIa; CD64A

[6] = target: T2, FcγRIIb; test: SPR (Biacore); parent = IL6R-B3/IL6R-L
[7] = target: T3, FcγRIIa type R; test: SPR (Biacore); parent = IL6R-B3/IL6R-L

T5 sequence (P12314 16-292): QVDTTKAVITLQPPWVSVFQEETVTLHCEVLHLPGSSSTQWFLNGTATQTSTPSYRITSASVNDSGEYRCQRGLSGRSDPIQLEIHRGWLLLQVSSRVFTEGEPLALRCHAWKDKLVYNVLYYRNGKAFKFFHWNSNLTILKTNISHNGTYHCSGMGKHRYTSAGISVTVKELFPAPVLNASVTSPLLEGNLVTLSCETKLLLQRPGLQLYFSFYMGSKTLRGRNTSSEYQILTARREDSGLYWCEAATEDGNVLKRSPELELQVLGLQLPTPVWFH
T4 sequence (P12314 16-292): as above

Binder	relative binding activity [1]	relative binding activity [2]	Kd [3] [nM]	Kd [4] [nM]	Kd [5] [nM]	KD(IIb) of the parent polypeptide/KD(IIb) of the altered polypeptide [6] [fold]	KD(IIaR) of the parent polypeptide/KD(IIaR) of the altered polypeptide [7] [fold]
B1	224 relative (IL6R-BF648/IL6R-L = 100)	104 relative (IL6R-BF648/IL6R-L = 100)					
B2			28	1600	1.1	110	0.7
B3			18	520	1.1	174	2.1
B4			24	450	1.4	128	2.4
B5	253 relative (IL6R-BF648/IL6R-L = 100)	33 relative (IL6R-BF648/IL6R-L = 100)					
B6			16	570	18	196	1.9
B7			21	540	1.4	149	2
B8			21	430	1.1	145	2.6
